The values below are quoted from earlier work in paper PMC5871712.

Read-outs that look alike come from different tables or passages of the source.

For data set [1], the target named is CRFR2 (Rattus norvegicus) (UniProt P47866).
Data set [2] has as its target CRFR1 (Rattus norvegicus) (UniProt P35353).
Data set [3] addresses CRFR2 (Rattus norvegicus) (UniProt P47866). This is another data set of the same source.
Data set [4] concerns the target CRFR1 (Rattus norvegicus) (UniProt P35353). The source holds these as a separate data set.

Ucn1, sequence (P55090 81-122): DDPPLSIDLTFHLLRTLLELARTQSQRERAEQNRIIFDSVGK
CRF, sequence (P01143 145-187): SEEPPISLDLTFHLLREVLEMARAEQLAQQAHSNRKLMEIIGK
CRFR2 (Rattus norvegicus), sequence (P47866 20-411): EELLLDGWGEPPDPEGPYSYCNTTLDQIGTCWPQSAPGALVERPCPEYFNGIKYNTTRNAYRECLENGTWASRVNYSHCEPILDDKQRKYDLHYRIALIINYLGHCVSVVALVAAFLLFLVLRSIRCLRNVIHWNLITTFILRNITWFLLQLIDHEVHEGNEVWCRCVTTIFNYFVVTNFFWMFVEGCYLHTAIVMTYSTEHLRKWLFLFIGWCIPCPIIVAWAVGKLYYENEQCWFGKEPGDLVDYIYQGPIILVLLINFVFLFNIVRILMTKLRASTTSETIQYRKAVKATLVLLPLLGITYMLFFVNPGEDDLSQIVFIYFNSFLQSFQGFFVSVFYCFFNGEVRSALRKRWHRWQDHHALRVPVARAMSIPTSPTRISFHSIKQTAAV
CRFR1 (Rattus norvegicus), sequence (P35353 24-415): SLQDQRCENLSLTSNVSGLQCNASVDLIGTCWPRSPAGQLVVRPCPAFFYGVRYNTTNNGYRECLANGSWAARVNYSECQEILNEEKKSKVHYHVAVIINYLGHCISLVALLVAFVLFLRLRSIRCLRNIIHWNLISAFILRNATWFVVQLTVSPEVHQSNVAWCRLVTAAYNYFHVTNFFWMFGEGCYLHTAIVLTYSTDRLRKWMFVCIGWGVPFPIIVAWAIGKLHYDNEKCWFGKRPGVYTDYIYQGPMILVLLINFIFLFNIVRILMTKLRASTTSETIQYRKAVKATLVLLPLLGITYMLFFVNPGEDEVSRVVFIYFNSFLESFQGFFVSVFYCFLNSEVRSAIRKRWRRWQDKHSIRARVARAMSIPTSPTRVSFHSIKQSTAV

The Ki is the dissociation constant of the complex between target and ligand, obtained from inhibition or displacement. Regarding CRF (from UniProt P01143), the Ki in data set [1] was 42 nM; in data set [2], 1.6 nM.

As for Ucn1 (from UniProt P55090), the Ki in data set [3] was 0.86 nM; in data set [4] it was 0.17 nM.
